From doi:10.1101/2020.01.09.899195 (bioRxiv, 2020)
Each block holds one binder with its values, some of them ahead of it.

What was measured:
ClpX = ClpX (Escherichia coli, UniProt P0A6H1 1-424); assay: negative-stain transmission electron microscopy
MinD(R3E) = biological target: T1, MinD(R3E) (Escherichia coli, UniProt P0AEZ3 1-270, R3E); assay: 90° light scatter
T1 sequence (looked up): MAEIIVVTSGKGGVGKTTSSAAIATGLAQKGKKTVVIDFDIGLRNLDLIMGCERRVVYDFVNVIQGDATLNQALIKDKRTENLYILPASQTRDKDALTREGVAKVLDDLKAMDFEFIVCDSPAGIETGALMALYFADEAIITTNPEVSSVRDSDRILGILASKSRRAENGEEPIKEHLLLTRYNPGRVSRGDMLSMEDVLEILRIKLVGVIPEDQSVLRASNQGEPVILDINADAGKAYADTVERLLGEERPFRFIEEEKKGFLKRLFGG

binding result (ClpX): binds
B1: ClpP (enzyme)
chain: not shown

binding result (MinD(R3E)): binds
B2: MinC (natural protein, Escherichia coli, UniProt P18196 1-231, looked up)
chain: MSNTPIELKGSSFTLSVVHLHEAEPKVIHQALEDKIAQAPAFLKHAPVVLNVSALEDPVNWSAMHKAVSATGLRVIGVSGCKDAQLKAEIEKMGLPILTEGKEKAPRPAPTPQAPAQNTTPVTKTRLIDTPVRSGQRIYAPQCDLIVTSHVSAGAELIADGNIHVYGMMRGRALAGASGDRETQIFCTNLMAELVSIAGEYWLSDQIPAEFYGKAARLQLVENALTVQPLN
